Experimental data published in the RNAGym collection of RNA variant scans (doi:10.1073/pnas.2313332121).
Variants at the floor of the assay were thinned out.

B1: TPR 5TU (parent)
chain: GGAUCUUCUCGAUCUAACAAAAAAGACAAAUCUGCCACAAAGCUUGAGAGCAUCUUCGGAUGCAGAGGCGGCAGCCUUCGGUGGCGCGAUAGCGCCAACGUUCUCAACUAUGACACGCAAAACGCGUGCUCCGUUGAAUGGAGUUUAUCAUG

Variants of: B1
Test: polymerase ribozyme fitness, log enrichment relative to wild type (log ratio); higher = more active; in vitro selection for triplet polymerase activity
Summary of the method: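 Frozen incubation at −7 °C formed the core of a single, triplicate in vitro selection round applied to PCR-built, transcribed mutant libraries of each subunit of a heterodimeric triplet polymerase ribozyme. Extended constructs were gel-excised, captured with streptavidin beads and amplified by RT-PCR, and input and output libraries were Illumina-sequenced with a filter of ≥10 input reads and ≥1 read per output. Fitness is the logarithm of genotype enrichment relative to wild-type enrichment, with inverse-variance-weighted replicate averaging, and the logarithm is base 2.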

Variant | polymerase ribozyme fitness (log ratio)
G50U A122G U148A | -3.37
U53A G84U | -1.26
A3G C18U G34U C95U A115C | -4.09
A17G C132G | -3.28
G50A C54U G80A U82G G88A G92A C93G U145A | ≤ -4.2
G11U C69U U134C | -1.33
C54U C75G | -3.81
C5A A16G G50U C51A A89U U134G A137G G140A A142C A147C | ≤ -4.2
C54A C95U A106C | -2.19
A49G G50A G84A A97G | -3.11
C93U C116U G141A | -0.0845
U44G A52G U53A C75A | ≤ -4.2
A37C A40G A52U A60G G70C G86U A119C | ≤ -4.2
G81C A119U G128U | -2.99
G50A A98U G126A | -1.26
C36A C93G C125A | ≤ -4.2
G25C G48A C87U A142G | -4.11
G70C A97G | -3.97
A17U A21U U55A A91C C95G A98U C108G | ≤ -4.2
C32A C87A | ≤ -4.2
C96G U130C | 0.873

Variant | polymerase ribozyme fitness (log ratio)
G84A U102G A122U | -2.74
A41C G83U | -0.922
A24G U31C | -3.52
A29G A41C A47G C85G G92U U104G A137G G141U | ≤ -4.2
C69U A98U | -1.15
U6C G124C C129A | -4.16
A28U A147C U151C G152C | ≤ -4.2
U13G G25A G83A | -4.07
U9A C75U G88C C99G U101A C118U A137C | ≤ -4.2
C85G C118A A142U | -2.93
A3U A20U C32U G70U G84U A120C | ≤ -4.2
A22U U53A G88A C116G A142G A150C | ≤ -4.2
G46U A120C | -0.32
A12U U53A G141U | -1.08
C75U C85U A119G G143A A147C | -3.76
A12G C69A C96U A121C U127G A147U | -4.02
U56A U77C | -2.93
A29C A52C G88U | ≤ -4.2
A24U U148C | -2.14
A41U G92U | -1.05
U7C A23U C87A A89G A115U U134A | ≤ -4.2

Variant | polymerase ribozyme fitness (log ratio)
U102G G141C | -3.94
G58A A147U | 0.692
A22U U56A | -0.239
C85G A122G C149A | ≤ -4.2
A40U G92C A147C | -0.761
C36A C87U | -3.89
U15G C27A | -4.13
G65A C85U A137U U139A G140A G152A | -3.3
A37G C72U A97G U102G C118U | ≤ -4.2
A26C C54G A121G | -2.79
A28U A29G C32U C57G | ≤ -4.2
A29U U44A C85G G124A G152A | ≤ -4.2
C5A G59C C96A A98U | -0.127
G81A C105G A121U | -1.1
G59A C76G | ≤ -4.2
G83U C95G G124U U148C | ≤ -4.2
A3U A41U | -1.29
C35A A60C U102G | ≤ -4.2
U55A C63U A142U | -0.552
C51U C63U G83C U151C | ≤ -4.2
U13C C36A C85G C99A A138C | ≤ -4.2

Variant | polymerase ribozyme fitness (log ratio)
C10A A17C G34A A91C U102G G140U | -3.67
A12G C54U G86U C105U G143A | -2.5
A52G U77G A91C | ≤ -4.2
C14A U55A C75U A120U | -2.39
A91U A147U | -3.99
U9C G58C A91G C105G A110G | ≤ -4.2
G48A U127G | -3.5
A120U U135C | -2.85
A24U A37U G42C C75G | -3.99
A60C U101G | -1.58
C57G A73G C87G A98U C125G G141A | ≤ -4.2
U55A G83A G124A | -0.748
A28G A106C G133U A142C | ≤ -4.2
C95U C99U | -1.09
C85A A119U | -2.98
A23U A29C C85G A110G G112U | ≤ -4.2
C27A A28G C43A G58C C95U C105G | ≤ -4.2
G62U G94A | -1.25
A22U C99G C116U | -0.689
C85U A89U A106G C125G | -1.15
